According to ChEMBL document CHEMBL2074257, “Expression cloning of a Na+-independent aromatic amino acid transporter with structural similarity to H+/monocarboxylate transporters” (J Biol Chem, 2001):

Legend:
[1] = biological target: T1, Monocarboxylate transporter 10 (Rattus norvegicus, UniProt Q91Y77); test: TP_TRANSPORTER: inhibition of L-tryptophan uptake in Xenopus laevis oocytes; format: functional, cell-based, Oocyte
T1 sequence (Q91Y77 whole entry): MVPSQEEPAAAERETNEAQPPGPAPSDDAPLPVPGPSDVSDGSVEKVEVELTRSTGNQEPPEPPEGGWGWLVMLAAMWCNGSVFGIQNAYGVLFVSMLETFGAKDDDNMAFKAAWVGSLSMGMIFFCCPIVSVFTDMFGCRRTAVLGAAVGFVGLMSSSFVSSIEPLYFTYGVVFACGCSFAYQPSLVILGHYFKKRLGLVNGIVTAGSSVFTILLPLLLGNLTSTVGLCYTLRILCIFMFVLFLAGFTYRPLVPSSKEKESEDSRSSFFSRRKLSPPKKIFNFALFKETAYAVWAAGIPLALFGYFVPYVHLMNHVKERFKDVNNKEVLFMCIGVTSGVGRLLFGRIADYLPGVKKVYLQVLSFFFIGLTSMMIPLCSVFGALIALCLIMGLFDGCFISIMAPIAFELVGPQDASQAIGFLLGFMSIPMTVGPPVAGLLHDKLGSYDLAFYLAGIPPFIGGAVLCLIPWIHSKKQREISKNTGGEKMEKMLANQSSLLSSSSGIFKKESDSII

[2] = substrate: N[C@@H](Cc1ccc(O)c(O)c1)C(=O)O; settings: Xenopus laevis; Oocyte
[3] = substrate: N[C@@H](Cc1ccccc1)C(=O)O; settings: Xenopus laevis; Oocyte
[4] = substrate: N[C@@H](Cc1c[nH]c2ccccc12)C(=O)O; settings: Xenopus laevis; Oocyte
[5] = substrate: N[C@@H](Cc1ccc(O)cc1)C(=O)O; settings: Xenopus laevis; Oocyte

Row | Molecule | Ki [1] [µM] | Km [2] [mM] | Km [3] [mM] | Km [4] [mM] | Km [5] [mM]
1 | CN[C@@H](Cc1c[nH]c2ccccc12)C(=O)O [ABRINE] | 3100 |  |  |  | 
2 | CC(=O)N[C@@H](Cc1c[nH]c2ccccc12)C(=O)O [ACETYLTRYPTOPHAN] | 1500 |  |  |  | 
3 | Monocarboxylate transporter 10 (Rattus norvegicus), Q91Y77 (protein) MVPSQEEPAAAERETNEAQPPGPAPSDDAPLPVPGPSDVSDGSVEKVEVELTRSTGNQEPPEPPEGGWGWLVMLAAMWCNGSVFGIQNAYGVLFVSMLETFGAKDDDNMAFKAAWVGSLSMGMIFFCCPIVSVFTDMFGCRRTAVLGAAVGFVGLMSSSFVSSIEPLYFTYGVVFACGCSFAYQPSLVILGHYFKKRLGLVNGIVTAGSSVFTILLPLLLGNLTSTVGLCYTLRILCIFMFVLFLAGFTYRPLVPSSKEKESEDSRSSFFSRRKLSPPKKIFNFALFKETAYAVWAAGIPLALFGYFVPYVHLMNHVKERFKDVNNKEVLFMCIGVTSGVGRLLFGRIADYLPGVKKVYLQVLSFFFIGLTSMMIPLCSVFGALIALCLIMGLFDGCFISIMAPIAFELVGPQDASQAIGFLLGFMSIPMTVGPPVAGLLHDKLGSYDLAFYLAGIPPFIGGAVLCLIPWIHSKKQREISKNTGGEKMEKMLANQSSLLSSSSGIFKKESDSII |  | 6.43 | 7.02 | 3.72 | 2.59
